Experimental findings from PMC9873567 (2022) are described below.

Experiment [1] concerns the target ERECTA (UniProt Q42371). The experiment can be described thus: anti-MYC co-IP, anti-HA blot.
The target in experiment [2] is T1, GST-PUB30 (Arabidopsis thaliana, UniProt Q058P4 1-448).
T1 chain: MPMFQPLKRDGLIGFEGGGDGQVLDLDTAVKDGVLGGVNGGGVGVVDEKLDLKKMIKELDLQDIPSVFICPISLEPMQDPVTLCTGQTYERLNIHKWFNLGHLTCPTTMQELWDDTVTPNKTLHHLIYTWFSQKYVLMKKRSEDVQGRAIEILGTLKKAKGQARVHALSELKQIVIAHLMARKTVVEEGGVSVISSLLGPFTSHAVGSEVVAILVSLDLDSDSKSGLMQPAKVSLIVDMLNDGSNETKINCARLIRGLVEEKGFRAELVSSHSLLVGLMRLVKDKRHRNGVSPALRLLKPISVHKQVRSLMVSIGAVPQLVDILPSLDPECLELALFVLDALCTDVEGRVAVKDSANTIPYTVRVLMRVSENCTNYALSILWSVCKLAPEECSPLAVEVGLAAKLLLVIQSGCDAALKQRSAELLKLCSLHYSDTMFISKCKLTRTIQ
As to the kind of experiment: BLI. A general note: Biolayer interferometry detects binding as a change in optical thickness at a sensor tip.

The target in experiment [3] is T2, GST-PUB31 (Arabidopsis thaliana, UniProt Q9FHN9 1-444).
T2 chain: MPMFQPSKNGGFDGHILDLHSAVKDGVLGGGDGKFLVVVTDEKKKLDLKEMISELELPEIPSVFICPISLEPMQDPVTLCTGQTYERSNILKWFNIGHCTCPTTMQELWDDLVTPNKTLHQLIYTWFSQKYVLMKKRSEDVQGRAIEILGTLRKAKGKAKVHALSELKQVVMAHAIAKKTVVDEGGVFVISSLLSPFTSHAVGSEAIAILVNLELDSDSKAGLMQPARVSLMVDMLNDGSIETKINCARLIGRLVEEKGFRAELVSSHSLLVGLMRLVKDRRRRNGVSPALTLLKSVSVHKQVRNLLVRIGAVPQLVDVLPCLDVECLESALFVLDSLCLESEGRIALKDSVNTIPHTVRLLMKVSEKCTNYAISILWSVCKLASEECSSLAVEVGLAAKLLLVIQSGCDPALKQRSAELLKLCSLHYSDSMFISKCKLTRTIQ
As to the kind of experiment: BLI.

For experiment [4], the target named is T1, GST-PUB30. The experiment can be described thus: BLI.
The target in experiment [5] is T2, GST-PUB31. The experiment can be described thus: BLI.

Read-outs that look alike come from different tables or passages of the source.

Regarding “PUB30 (from UniProt Q058P4) PUB30 T155A-MYC”, in experiment [1] (reference: wild type PUB30-MYC, sites T155), the “binding against the reference” value was “weaker”.
In the case of “PUB31 (from UniProt Q9FHN9) PUB31 T151A-MYC”, the “binding against the reference” value in experiment [1] (reference: wild type PUB31-MYC, sites T151) is on record as “weaker”.

B1: MBP-ERECTA_CD (domain or fragment)
chain: CRPHNPPPFLDGSLDKPVTYSTPKLVILHMNMALHVYEDIMRMTENLSEKYIIGHGASSTVYKCVLKNCKPVAIKRLYSHNPQSMKQFETELEMLSSIKHRNLVSLQAYSLSHLGSLLFYDYLENGSLWDLLHGPTKKKTLDWDTRLKIAYGAAQGLAYLHHDCSPRIIHRDVKSSNILLDKDLEARLTDFGIAKSLCVSKSHTSTYVMGTIGYIDPEYARTSRLTEKSDVYSYGIVLLELLTRRKAVDDESNLHHLIMSKTGNNEVMEMADPDITSTCKDLGVVKKVFQLALLCTKRQPNDRPTMHQVTRVLGSFMLSEQPPAATDTSATLAGSCYVDEYANLKTPHSVNCSSMSASDAQLFLRFGQVISQNSE
Take B1: the Kd turned out to be 15 µM in experiment [2] and 11 µM in experiment [3].

B2: MBP-BAK1_CD (domain or fragment)
chain: AWWRRKKPQDHFFDVPAEEDPEVHLGQLKRFSLRELQVASDNFSNKNILGRGGFGKVYKGRLADGTLVAVKRLKEERTQGGELQFQTEVEMISMAVHRNLLRLRGFCMTPTERLLVYPYMANGSVASCLRERPESQPPLDWPKRQRIALGSARGLAYLHDHCDPKIIHRDVKAANILLDEEFEAVVGDFGLAKLMDYKDTHVTTAVRGTIGHIAPEYLSTGKSSEKTDVFGYGVMLLELITGQRAFDLARLANDDDVMLLDWVKGLLKEKKLEALVDVDLQGNYKDEEVEQLIQVALLCTQSSPMERPKMSEVVRMLEGDGLAERWEEWQKEEMFRQDFNYPTHHPAVSGWIIGDSTSQIENEYPSGPR
For B2, the Kd in experiment [4] is 2.4 µM; in experiment [5], 2 µM.

Broadly, the Kd is the equilibrium constant for the complex coming apart. Read a high Kd as a looser complex.
